Assay [1] concerns the target T1, huB7-H3 (human, UniProt Q5ZPR3 29-461, limits assumed).
T1 construct: Sourced antigen; construct not described; also called Human B7-H3
T1 sequence (looked up): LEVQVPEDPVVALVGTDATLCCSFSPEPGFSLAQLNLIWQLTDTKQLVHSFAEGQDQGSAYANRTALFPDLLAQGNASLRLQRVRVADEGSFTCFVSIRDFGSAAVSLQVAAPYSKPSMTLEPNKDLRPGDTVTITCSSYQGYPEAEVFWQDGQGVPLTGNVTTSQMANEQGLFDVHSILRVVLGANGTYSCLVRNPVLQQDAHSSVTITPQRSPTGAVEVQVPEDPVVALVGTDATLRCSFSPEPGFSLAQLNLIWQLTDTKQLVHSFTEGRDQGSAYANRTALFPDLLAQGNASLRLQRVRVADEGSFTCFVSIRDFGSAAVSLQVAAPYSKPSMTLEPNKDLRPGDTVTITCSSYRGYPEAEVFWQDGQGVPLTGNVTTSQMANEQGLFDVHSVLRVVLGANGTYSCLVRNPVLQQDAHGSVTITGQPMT
Put plainly: ELISA, absorbance 450 nm, antigen human B7-H3 (ECD) Fc. For orientation: ELISA stands for enzyme-linked immunosorbent assay.

For assay [2], the target named is T2, huB7-H2 (human, UniProt O75144 19-258).
T2 construct: Sourced antigen; construct not described; also called Human B7-H2
T2 sequence (looked up): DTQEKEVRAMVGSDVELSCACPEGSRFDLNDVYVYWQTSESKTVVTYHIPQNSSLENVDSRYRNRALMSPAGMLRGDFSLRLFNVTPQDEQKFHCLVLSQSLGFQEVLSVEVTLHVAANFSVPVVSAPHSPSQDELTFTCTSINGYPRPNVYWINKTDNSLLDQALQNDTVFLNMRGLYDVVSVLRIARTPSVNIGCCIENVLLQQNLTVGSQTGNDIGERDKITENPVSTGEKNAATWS
Put plainly: ELISA, absorbance 450 nm, antigen human B7-H2 (ECD) F10H.

The target of assay [3] is T3, huHHLA2 (human, UniProt Q9UM44 23-344).
T3 construct: Sourced antigen; construct not described; also called Human HHLA2
T3 sequence (looked up): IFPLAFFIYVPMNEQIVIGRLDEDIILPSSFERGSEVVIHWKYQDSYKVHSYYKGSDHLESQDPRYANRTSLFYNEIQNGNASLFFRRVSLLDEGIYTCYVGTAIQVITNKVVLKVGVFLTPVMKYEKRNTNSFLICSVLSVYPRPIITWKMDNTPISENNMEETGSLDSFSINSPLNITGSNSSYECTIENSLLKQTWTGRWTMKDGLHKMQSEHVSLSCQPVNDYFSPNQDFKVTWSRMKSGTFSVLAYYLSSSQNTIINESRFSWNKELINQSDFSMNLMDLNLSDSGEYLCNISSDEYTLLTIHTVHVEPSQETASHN
Put plainly: ELISA, absorbance 450 nm, antigen human HHLA2 GST.

For assay [4], the target named is T4, Human B7-H4-Fc (Human B7H4 ECD, Fc_6His) (human).
T4 construct: also called FcHis6 tagged human B7-H4
T4 sequence (Q7Z7D3 whole entry, looked up): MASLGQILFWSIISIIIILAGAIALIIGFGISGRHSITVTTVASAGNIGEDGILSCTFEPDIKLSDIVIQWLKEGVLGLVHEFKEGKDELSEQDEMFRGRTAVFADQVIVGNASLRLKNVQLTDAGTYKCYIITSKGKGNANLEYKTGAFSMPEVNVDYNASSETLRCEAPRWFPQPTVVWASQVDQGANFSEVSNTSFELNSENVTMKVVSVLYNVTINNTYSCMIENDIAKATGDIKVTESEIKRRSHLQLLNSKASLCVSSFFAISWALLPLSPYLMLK
Put plainly: HTRF binding, murine IgG1.

In assay [5] the target is T5, huB7-H1 (human, UniProt Q9NZQ7 19-238).
T5 construct: Sourced antigen; construct not described; also called Human B7-H1
T5 sequence (Q9NZQ7 19-238 limits assumed): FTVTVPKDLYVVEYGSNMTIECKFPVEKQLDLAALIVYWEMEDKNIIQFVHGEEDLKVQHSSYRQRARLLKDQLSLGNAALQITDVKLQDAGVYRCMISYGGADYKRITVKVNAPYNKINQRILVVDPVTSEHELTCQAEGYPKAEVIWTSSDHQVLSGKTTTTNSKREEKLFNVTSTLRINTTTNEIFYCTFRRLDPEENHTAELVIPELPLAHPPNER
Put plainly: ELISA, absorbance 450 nm, antigen human B7-H1(ECD) F10H.

The target in assay [6] is T6, Murine B7-H4-Fc (Mouse B7H4 ECD, Fc_6His) (mouse, UniProt Q7TSP5 25-257).
T6 construct: extracellular domain; also called mouse B7-H4-Fc; FcHis6 tagged murine B7-H4
T6 sequence (Q7TSP5 whole entry, looked up): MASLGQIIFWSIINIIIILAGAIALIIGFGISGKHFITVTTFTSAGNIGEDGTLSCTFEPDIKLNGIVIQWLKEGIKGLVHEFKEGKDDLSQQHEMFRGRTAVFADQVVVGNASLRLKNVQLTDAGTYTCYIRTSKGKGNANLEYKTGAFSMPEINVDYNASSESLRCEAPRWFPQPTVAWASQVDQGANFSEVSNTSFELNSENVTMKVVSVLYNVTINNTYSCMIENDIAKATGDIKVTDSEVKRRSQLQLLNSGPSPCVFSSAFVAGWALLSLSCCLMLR
Put plainly: HTRF binding, murine IgG1. (Time-resolved FRET reads energy transfer from a long-lived donor to a nearby acceptor.)

Assay [7] deals with T7, Human B7-H4 ECD-Flag-His10 (monomeric) (human, UniProt Q7Z7D3 25-259).
T7 construct: Minimally biotinylated for KinExA; also called hB7H4-ECD-Flag-His10; B7-H4-FLAG
T7 sequence: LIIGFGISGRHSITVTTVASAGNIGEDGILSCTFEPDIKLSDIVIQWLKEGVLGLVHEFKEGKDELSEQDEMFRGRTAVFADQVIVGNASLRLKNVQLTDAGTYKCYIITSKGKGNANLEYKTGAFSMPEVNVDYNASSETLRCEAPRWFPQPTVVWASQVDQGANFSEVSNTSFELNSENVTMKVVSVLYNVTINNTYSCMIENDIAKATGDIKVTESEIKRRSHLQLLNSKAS
Put plainly: ELISA, absorbance 450 nm; x axis of this panel printed as Antibody Conc (µg/ml).

Assay [8] has as its target T4, Human B7-H4-Fc (Human B7H4 ECD, Fc_6His). The assay is described as above.
Assay [9] concerns the target T8, huBTN3A2 (human, UniProt P78410 30-248, limits assumed).
T8 construct: Sourced antigen; construct not described; also called Human BTN3A2
Put plainly: ELISA, absorbance 450 nm, antigen human BTN3A2 GST.

For assay [10], the target named is T9, huBTN2A1 (human, UniProt Q7KYR7 29-248, limits assumed).
T9 construct: Sourced antigen; construct not described; also called Human BTN2A1
T9 sequence (looked up): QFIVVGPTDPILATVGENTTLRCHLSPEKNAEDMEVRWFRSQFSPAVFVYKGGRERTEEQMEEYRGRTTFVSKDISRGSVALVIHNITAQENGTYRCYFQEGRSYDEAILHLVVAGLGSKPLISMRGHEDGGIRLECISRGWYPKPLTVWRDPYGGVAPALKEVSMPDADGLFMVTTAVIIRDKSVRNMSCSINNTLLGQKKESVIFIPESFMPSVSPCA
Put plainly: ELISA.

The target in assay [11] is T10, huBTNL3 (human, UniProt Q6UXE8 18-237, limits assumed).
T10 construct: Sourced antigen; construct not described; also called Human BTNL3
T10 sequence (looked up): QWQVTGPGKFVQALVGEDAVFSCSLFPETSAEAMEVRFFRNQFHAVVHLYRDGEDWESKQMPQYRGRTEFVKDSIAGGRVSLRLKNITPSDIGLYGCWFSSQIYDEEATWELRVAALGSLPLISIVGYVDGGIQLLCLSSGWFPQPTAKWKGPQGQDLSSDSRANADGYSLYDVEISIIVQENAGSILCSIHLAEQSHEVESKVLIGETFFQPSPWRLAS
Put plainly: ELISA.

Assay [12] deals with T11, Cyno B7-H4-Fc (Cyno B7H4 ECD, FcTM_6His) (cynomolgus monkey).
T11 construct: extracellular domain; also called cynomolgus B7-H4-Fc
Put plainly: HTRF binding, murine IgG1.

For assay [13], the target named is T12, huBTN1A1 (human, UniProt Q13410 27-242, limits assumed).
T12 construct: Sourced antigen; construct not described; also called Human BTN1A1
T12 sequence (looked up): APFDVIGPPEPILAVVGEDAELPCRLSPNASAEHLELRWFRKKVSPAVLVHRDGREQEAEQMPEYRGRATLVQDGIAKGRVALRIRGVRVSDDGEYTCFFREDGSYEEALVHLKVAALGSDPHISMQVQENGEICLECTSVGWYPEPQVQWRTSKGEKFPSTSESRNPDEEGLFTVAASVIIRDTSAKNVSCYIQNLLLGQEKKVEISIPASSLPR
Put plainly: ELISA, absorbance 450 nm, antigen human BTN1A1 GST.

In assay [14] the target is T7, Human B7-H4 ECD-Flag-His10 (monomeric). Put plainly: ELISA, absorbance 450 nm; x axis printed as antigen concentration (µg/ml).
Assay [15] addresses T4, Human B7-H4-Fc (Human B7H4 ECD, Fc_6His). Described as above.
The target in assay [16] is T13, Human B7H4 (ECD) Fc TM 6H (human, UniProt Q7Z7D3).
T13 construct: ECD, native leader
T13 sequence (Q7Z7D3 whole entry, looked up): T4 sequence (Q7Z7D3 whole entry, looked up)
Put plainly: ELISA, absorbance 450 nm, Human B7H4 (ECD) Fc TM 6H; x axis printed as antigen concentration (nM).

For assay [17], the target named is T11, Cyno B7-H4-Fc (Cyno B7H4 ECD, FcTM_6His). Put plainly: ELISA, absorbance 450 nm, Cyno B7H4 (ECD) Fc TM 6H; x axis printed as antigen concentration (nM).

Usually EC50 stands for the midpoint of the concentration-response curve. What is called EC50 (read off the curve) is the concentration at which the effect is half-maximal. Read a low EC50 (read off the curve) as an effect from little substance.

Positions count from the first letter of the chain named.

T8 sequence (P78410 30-248 limits assumed): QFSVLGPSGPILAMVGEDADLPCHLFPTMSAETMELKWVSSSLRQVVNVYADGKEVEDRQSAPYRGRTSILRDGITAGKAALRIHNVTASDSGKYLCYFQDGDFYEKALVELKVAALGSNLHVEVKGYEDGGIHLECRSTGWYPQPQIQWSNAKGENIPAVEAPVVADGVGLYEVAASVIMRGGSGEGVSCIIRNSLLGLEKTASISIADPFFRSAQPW

B1: ZY0EPQ-E02 murine IgG1 (antibody, V domains shown)
VH: QVQLQQWGAGLLKPSETLSLTCAVYGGSFSGYYWNWIRQPPGKGLEWIGEINHSGSTNYNPSLKSRVTILVDTSKNQFSLKLSSVTAADTAVYYCARNLYNWNLDSWGQGTLVTVSS
VL: DIQMTQSPSSLSASVGDRVTITCRASQGIRNDLGWYQQKPGRAPKRLIYVASSLQSGVPSRFSGSGSGTEFTLTISSLQPEDFATYYCLQHNSYPRTFGQGTKVEIK
For B1, the binding result in assay [1] is listed as “no binding”; in assay [2], “no binding (tested: 10 µg/ml (antigen))”; in assay [3], “no binding (tested: about 10 µg/ml (antigen))”; in [5], “no binding (tested: 10 µg/ml (antigen))”; in assay [9], “no binding (tested: about 10 µg/ml (antigen))”; in assay [10], “no binding”. For the same molecule, the binding result is listed as “no binding” in assay [11] and “no binding (tested: 10 µg/ml (antigen))” in assay [13]. The values for the EC50 in assay [4], in assay [6] and in assay [12] were 0.38 nM, 2.03 nM and 0.38 nM, respectively. Also, the results for the Max in assay [4], in [6] and in [12] were 2740, 790 and 2240, respectively. In addition, the “EC50 (read off the curve)” value in [7] and in assay [8] was approximately 0.2 µg/mL in each case.

B2: ZY0EQD-E02 murine IgG1 (antibody, V domains shown)
VH: B1 VH with N58S, L70S, N98V, L104V
VL: B1 VL with G28D, L33V, R42K, V50A, S53R
Turning to B2, the binding result in assay [1] is reported as “no binding”; in assay [2], “no binding (tested: 10 µg/ml (antigen))”; in [3] it was “no binding (tested: about 10 µg/ml (antigen))”; in assay [5], “no binding (tested: 10 µg/ml (antigen))”; in assay [9], “no binding (tested: about 10 µg/ml (antigen))”; in assay [10], “no binding”. In addition, the binding result in assay [11] was “no binding”; in assay [13], “no binding (tested: 10 µg/ml (antigen))”. Besides, the EC50 was found to be 0.22 nM in assay [4], 3.64 nM in assay [6] and 0.22 nM in [12]. In addition, the values for the Max in assay [4], in [6] and in [12] were 3170, 447 and 2490, respectively. In addition, the “EC50 (read off the curve)” value is approximately 0.04 µg/mL in [14] and approximately 0.03 µg/mL in assay [15].

B3: E02-GL-maia (antibody, human IgG1, kappa)
heavy: QVQLQQWGAGLLKPSETLSLACTVYGGSFSGYYWNWIRQPPGKGLEWIGEINHSGSTSYNPSLKSRVTISVDTSKNQFSLKLSSVTAADTAVYYCARVLYNWNVDSWGQGTLVTVSSASTKGPSVFPLAPSSKSTSGGTAALGCLVKDYFPEPVTVSWNSGALTSGVHTFPAVLQSSGLYSLSSVVTVPSSSLGTQTYICNVNHKPSNTKVDKRVEPKSCDKTHTCPPCPAPELLGGPSCVFLFPPKPKDTLMISRTPEVTCVVVDVSHEDPEVKFNWYVDGVEVHNAKTKPREEQYNSTYRVVSVLTVLHQDWLNGKEYKCKVSNKALPAPIEKTISKAKGQPREPQVYTLPPSREEMTKNQVSLTCLVKGFYPSDIAVEWESNGQPENNYKTTPPVLDSDGSFFLYSKLTVDKSRWQQGNVFSCSVMHEALHNHYTQKSLSLSPGK
light: DIQMTQSPSSLSASVGDRVTITCRASQDIRNDVGWYQQKPGKAPKRLIYAASRLQSGVPSRFSGSGSGTEFTLTISSLQPEDFATYYCLQHNSYPRTFGQGTKVEIKRTVAAPSVFIFPPSDEQLKSGTASVVCLLNNFYPREAKVQWKVDNALQSGNSQESVTEQDSKDSTYSLSSTLTLSKADYEKHKVYACEVTHQGLSSPVTKSFNRGEC
notes: Maia format: cysteine insertion in the IgG1 constant region; also called germlined (GL) Maia format mAb
As to B3, the “EC50 (read off the curve)” value in assay [16] and in [17] was approximately 10 nM throughout.

Values taken from patent publication US20240239894A1 (AstraZeneca / MedImmune, published 2024).
